Measurements published in patent publication US20170137818, “APTAMER INHIBITING BIOLOGICAL ACTIVITY OF AUTOTAXIN BY BINDING WITH AUTOTAXIN, AND USE THEREOF” (RIBOMIC INC., published 2017).

B1: 12(2) (ssDNA)
DNA: CCTGGACGGAACCAGAATACTTTTGGTCTCCAGG
modifications: 2'-OMe C30,C31
B2: 12(3) (ssDNA)
DNA: B1 DNA
modifications: 2'-OMe A32,G33,G34
B3: 12(58) (ssDNA)
DNA: B1 DNA
modifications: 2'-OMe C7,G9,A14,G15,A19,C20,A32,G33,G34; P-methyl C2; idT 5' and 3'
B4: 12(59) (ssDNA)
DNA: B1 DNA
modifications: 2'-OMe C7,G9,A14,G15,A19,C20,A32,G33,G34; P-methyl G4; idT 5' and 3'
B5: 12(60) (ssDNA)
DNA: B1 DNA
modifications: 2'-OMe C7,G9,A14,G15,A19,C20,A32,G33,G34; P-methyl T18; idT 5' and 3'
B6: 12(62) (ssDNA)
DNA: B1 DNA
modifications: 2'-OMe C7,G9,A14,G15,A19,C20,A32,G33,G34; P-methyl C28; idT 5' and 3'
B7: 12(63) (ssDNA)
DNA: B1 DNA
modifications: 2'-OMe C7,G9,A14,G15,A19,C20,G33,G34; P-methyl A32; idT 5' and 3'
B8: 12(64) (ssDNA)
DNA: B1 DNA
modifications: 2'-OMe C7,G9,A14,A19,C20,A32,G33,G34; P-methyl G15; idT 5' and 3'
B9: 12(65) (ssDNA)
DNA: B1 DNA
modifications: 2'-OMe C7,G9,A14,G15,A19,A32,G33,G34; P-methyl C20; idT 5' and 3'
B10: 12(66) (ssDNA)
DNA: B1 DNA
modifications: 2'-OMe C7,G9,A14,G15,A19,C20,A32,G33,G34; 5' 40 kDa PEG (GL2-400TS) via ssH linker; 3' idT
B11: 12(67) (ssDNA)
DNA: B1 DNA
modifications: 2'-OMe C7,G9,A14,G15,A19,C20,A32,G33,G34; 5' 40 kDa PEG (GL4-400TS) via ssH linker; 3' idT
B12: 12(68) (ssDNA)
DNA: B1 DNA
modifications: 2'-OMe U3,C7,G9,A14,G15,A19,C20,A32,G33,G34; idT 5' and 3'
B13: 12(70) (ssDNA)
DNA: B1 DNA
modifications: 2'-OMe C7,G9,A14,G15,A19,C20,U23,A32,G33,G34; idT 5' and 3'
B14: 12(71) (ssDNA)
DNA: B1 DNA
modifications: 2'-OMe C7,G9,A14,G15,A19,C20,U29,A32,G33,G34; idT 5' and 3'
B15: 12(73) (ssDNA)
DNA: B1 DNA
modifications: 2'-OMe C7,G9,A14,G15,A19,C20,U22,A32,G33,G34; idT 5' and 3'
B16: 12(74) (ssDNA)
DNA: B1 DNA
modifications: 2'-OMe C7,G9,A14,G15,A19,C20,U21,A32,G33,G34; idT 5' and 3'
B17: 12(75) (ssDNA)
DNA: B1 DNA
modifications: 2'-OMe C7,G9,A14,G15,U18,A19,C20,A32,G33,G34; idT 5' and 3'
B18: 12(76) (ssDNA)
DNA: B1 DNA
modifications: 2'-OMe C7,G9,A14,G15,A19,C20,A32,G33,G34; PS after A6; idT 5' and 3'
B19: 12(78) (ssDNA)
DNA: B1 DNA
modifications: 2'-OMe C7,G9,A14,G15,A19,C20,A32,G33,G34; PS after A10; idT 5' and 3'
B20: 12(79) (ssDNA)
DNA: B1 DNA
modifications: 2'-OMe C7,G9,A14,G15,A19,C20,A32,G33,G34; PS after A11; idT 5' and 3'
B21: 12(80) (ssDNA)
DNA: B1 DNA
modifications: 2'-OMe C7,G9,A14,G15,A19,C20,A32,G33,G34; PS after C12; idT 5' and 3'
B22: 12(81) (ssDNA)
DNA: B1 DNA
modifications: 2'-OMe C7,G9,A14,G15,A19,C20,A32,G33,G34; PS after C13; idT 5' and 3'
B23: 12(82) (ssDNA)
DNA: B1 DNA
modifications: 2'-OMe C7,G9,A14,G15,A19,C20,A32,G33,G34; PS after T24; idT 5' and 3'
B24: 12(83) (ssDNA)
DNA: B1 DNA
modifications: 2'-OMe C7,G9,A14,G15,A19,C20,A32,G33,G34; PS after G25; idT 5' and 3'
B25: 12(85) (ssDNA)
DNA: B1 DNA
modifications: 2'-OMe C7,G9,A14,G15,A19,C20,A32,G33,G34; PS after T27; idT 5' and 3'
B26: 12(86) (ssDNA)
DNA: B1 DNA
modifications: 2'-OMe C7,G9,A14,G15,A19,C20,A32,G33,G34; PS after C28; idT 5' and 3'
B27: 12(87) (ssDNA)
DNA: B1 DNA
modifications: 2'-OMe C7,G9,A14,G15,A19,C20,A32,G33,G34; PS after T23; idT 5' and 3'
B28: 12(89) (ssDNA)
DNA: B1 DNA
modifications: 2'-OMe C7,G9,A14,G15,A19,C20,A32,G33,G34; P-methyl G26; idT 5' and 3'
B29: 12(90) (ssDNA)
DNA: B1 DNA
modifications: 2'-OMe C7,G9,A14,G15,A19,C20,A32,G33,G34; P-methyl G25; idT 5' and 3'
B30: 12(91) (ssDNA)
DNA: B1 DNA
modifications: 2'-OMe C7,G9,A14,G15,A19,C20,A32,G33,G34; P-methyl C13; idT 5' and 3'
B31: 12(95) (ssDNA)
DNA: B1 DNA
modifications: 2'-OMe C7,G9,A14,G15,A19,C20,A32,G33,G34; P-methyl A6; idT 5' and 3'

Experiments:
[1] = target: autotaxin (endogenous, human pooled serum) (Homo sapiens, UniProt Q13822 Q13822:36-863); assay: inhibition; LPA production in serum, 5.0 uM
[2] = target: autotaxin (ENPP2/NPP2) (Homo sapiens, UniProt Q13822 Q13822:36-863); assay: inhibition; LPA production, 0.10 uM aptamer, ~92% serum, 37C 3 h

Binder	activity [1] [% inhibition]	activity [2] [% inhibition]
B1	80	
B2	92	
B3		69
B4		71
B5		50
B6		75
B7		59
B8		63
B9		57
B10		77
B11		74
B12		53
B13		9
B14		31
B15		11
B16		31

Binder	activity [1] [% inhibition]	activity [2] [% inhibition]
B17		65
B18		67
B19		62
B20		37
B21		85
B22		70
B23		51
B24		54
B25		68
B26		57
B27		70
B28		48
B29		63
B30		58
B31		64
